Target: G. gallus FANCD2 (G. gallus, UniProt Q68Y81 1-1439)
Test: cross-linking

G. gallus FANCD2, sequence (Q68Y81 whole entry): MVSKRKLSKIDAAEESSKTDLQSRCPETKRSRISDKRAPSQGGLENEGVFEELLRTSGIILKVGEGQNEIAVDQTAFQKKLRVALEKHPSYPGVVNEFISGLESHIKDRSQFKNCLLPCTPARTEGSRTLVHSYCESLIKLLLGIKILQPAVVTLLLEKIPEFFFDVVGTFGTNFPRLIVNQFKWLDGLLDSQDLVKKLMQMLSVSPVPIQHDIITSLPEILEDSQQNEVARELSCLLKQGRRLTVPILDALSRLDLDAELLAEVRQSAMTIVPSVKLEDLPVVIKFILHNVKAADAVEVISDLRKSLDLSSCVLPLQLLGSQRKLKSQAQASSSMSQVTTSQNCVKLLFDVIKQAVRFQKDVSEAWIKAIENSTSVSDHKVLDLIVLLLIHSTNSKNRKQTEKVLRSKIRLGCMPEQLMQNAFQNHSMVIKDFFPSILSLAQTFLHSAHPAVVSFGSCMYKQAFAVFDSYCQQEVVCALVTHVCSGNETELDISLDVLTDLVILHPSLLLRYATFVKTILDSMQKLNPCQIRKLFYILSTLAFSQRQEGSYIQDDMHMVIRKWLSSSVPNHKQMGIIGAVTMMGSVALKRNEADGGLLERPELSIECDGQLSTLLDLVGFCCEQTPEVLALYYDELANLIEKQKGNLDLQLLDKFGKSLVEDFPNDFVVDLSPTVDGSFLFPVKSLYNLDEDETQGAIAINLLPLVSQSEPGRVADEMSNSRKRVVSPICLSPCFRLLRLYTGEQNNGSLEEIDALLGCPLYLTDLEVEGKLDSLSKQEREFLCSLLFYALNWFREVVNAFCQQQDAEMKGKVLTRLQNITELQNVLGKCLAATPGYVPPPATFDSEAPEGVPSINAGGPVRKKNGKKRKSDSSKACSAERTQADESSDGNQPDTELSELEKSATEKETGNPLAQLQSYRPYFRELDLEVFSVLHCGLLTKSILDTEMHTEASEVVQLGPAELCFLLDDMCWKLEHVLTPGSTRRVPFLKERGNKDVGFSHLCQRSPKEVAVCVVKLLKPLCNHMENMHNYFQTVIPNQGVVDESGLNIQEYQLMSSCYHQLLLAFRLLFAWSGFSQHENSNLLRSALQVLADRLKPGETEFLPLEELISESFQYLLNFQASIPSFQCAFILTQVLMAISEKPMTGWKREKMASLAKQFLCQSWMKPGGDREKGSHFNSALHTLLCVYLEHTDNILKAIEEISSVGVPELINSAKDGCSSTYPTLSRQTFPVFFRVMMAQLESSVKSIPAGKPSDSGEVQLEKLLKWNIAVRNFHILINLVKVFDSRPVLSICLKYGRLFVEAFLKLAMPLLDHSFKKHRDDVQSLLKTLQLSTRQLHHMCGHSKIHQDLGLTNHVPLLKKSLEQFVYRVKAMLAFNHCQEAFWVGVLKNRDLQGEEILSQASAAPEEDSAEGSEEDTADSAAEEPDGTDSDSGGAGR

B1: G. gallus FANCI, wild type (natural protein, UniProt B0I564 1-1338, looked up)
chain: MAQRILQLAAEGSPERLQEALQGLTEGELGDMVTRQALRGRETAALLKGIFKGSPCSQQSGVLRRLQVYKHCVSLVESGDLHVGKVSEIIGLLMLEARQLPGHALAELATLFVEVIKRGSLSNGKSLELFSTVLTALSNSKESLAYGKGELNGEEFKKQLINTLCSSKWDPQCVIHLANMFRDIPLSGEELQFVVEKVLRMFSKLDLQEIPPLVYQLLLLSAKGSKKTVLEGIISFFNQLDKRQKEEQRVPQSADLEVATVPLDQLRHVEGTVILHIVSAINLDQDIGEELIKHLKTEQQKDPGKALCPFSVSLLLSTAVKHRLQEQIFDFLKTSITRSCKDLQILQASKFLQDLCPQQYDVTAVILEVVKNSAFGWDHVTQGLVDLGFSLMESYEPKKSFGGKAAETNLGLSKMPAQQACKLGASILLETFKVHEPIRSDILEQVLNRVLTKAASPVSHFIDLLSNIVVSAPLVLQNSSSRVTETFDNLSFLPIDTVQGLLRAVQPLLKVSMSVRDSLILVLQKAIFSRQLDARKAAVAGFLLLLRNFKILGSLTSSQCSQAIGATQVQADVHACYNSAANEAFCLEILGSLRRCLSQQADVRLMLYEGFYDVLRRNSQLASSIMETLLSQIKQYYLPQQDLLPPLKLEGCIMAQGDQIFLQEPLAHLLCCIQHCLAWYKSTVHLCKGAEDEEEEEDVGFEQNFEEMLESVTRRMIKSELEDFELDKSADFSPSSGVGVKNNIYAIQVMGICEVLIEYNFKIGNFSKNKFEDVLGLFTCYNKLSEILKEKAGKNKSTLGNRIARSFLSMGFVSTLLTALFRDNAQSHEESLAVLRSSTEFMRYAVSVALQKVQQLEEMGQTDGPDGQNPEKMFQNLCKITRVLLWRYTSIPTAVEESGKKKGKSISLLCLEGLLRIFNTMQQLYAARIPQFLQALDITDGDAEEADINVTEKAAFQIRQFQRSLVNQLSSAEDDFNSKETQLLITILSTLSKLLDPGSQQFLQFLTWTVKICKENALEDLSCCKGLLTLLFSLHVLYKSPVSLLRELAQDIHACLGDIDQDVEIESRSHFAIVNVKTAAPTVCLLVLGQADKVLEEVDWLIKRLTILGSDTSEDSTQASNQTQALEKGVILQLGTLLTVFHELVQTALPAGSCVDSLLRSLSKTYAILTSLIKHYIQACRSTSNTVPGRLEKLVKLSGSHLTPQCYSFITYVQNIHSESLSFAEEKKKKKKEDETAVVSTVMAKVLRDTKPIPNLIFAIEQYEKFLIHLSKKSKVNLMQYMKLSTSRDFRINASMLDSVLQEQNTEDAENEPDNNQSGTAEQPDENQEPQKKRRRKK
  binding result: binds

B2: G. gallus FANCI, phosphomimetic S558D, S561D, T567D (natural protein, UniProt B0I564 1-1338, looked up)
chain: MAQRILQLAAEGSPERLQEALQGLTEGELGDMVTRQALRGRETAALLKGIFKGSPCSQQSGVLRRLQVYKHCVSLVESGDLHVGKVSEIIGLLMLEARQLPGHALAELATLFVEVIKRGSLSNGKSLELFSTVLTALSNSKESLAYGKGELNGEEFKKQLINTLCSSKWDPQCVIHLANMFRDIPLSGEELQFVVEKVLRMFSKLDLQEIPPLVYQLLLLSAKGSKKTVLEGIISFFNQLDKRQKEEQRVPQSADLEVATVPLDQLRHVEGTVILHIVSAINLDQDIGEELIKHLKTEQQKDPGKALCPFSVSLLLSTAVKHRLQEQIFDFLKTSITRSCKDLQILQASKFLQDLCPQQYDVTAVILEVVKNSAFGWDHVTQGLVDLGFSLMESYEPKKSFGGKAAETNLGLSKMPAQQACKLGASILLETFKVHEPIRSDILEQVLNRVLTKAASPVSHFIDLLSNIVVSAPLVLQNSSSRVTETFDNLSFLPIDTVQGLLRAVQPLLKVSMSVRDSLILVLQKAIFSRQLDARKAAVAGFLLLLRNFKILGSLTSDQCDQAIGADQVQADVHACYNSAANEAFCLEILGSLRRCLSQQADVRLMLYEGFYDVLRRNSQLASSIMETLLSQIKQYYLPQQDLLPPLKLEGCIMAQGDQIFLQEPLAHLLCCIQHCLAWYKSTVHLCKGAEDEEEEEDVGFEQNFEEMLESVTRRMIKSELEDFELDKSADFSPSSGVGVKNNIYAIQVMGICEVLIEYNFKIGNFSKNKFEDVLGLFTCYNKLSEILKEKAGKNKSTLGNRIARSFLSMGFVSTLLTALFRDNAQSHEESLAVLRSSTEFMRYAVSVALQKVQQLEEMGQTDGPDGQNPEKMFQNLCKITRVLLWRYTSIPTAVEESGKKKGKSISLLCLEGLLRIFNTMQQLYAARIPQFLQALDITDGDAEEADINVTEKAAFQIRQFQRSLVNQLSSAEDDFNSKETQLLITILSTLSKLLDPGSQQFLQFLTWTVKICKENALEDLSCCKGLLTLLFSLHVLYKSPVSLLRELAQDIHACLGDIDQDVEIESRSHFAIVNVKTAAPTVCLLVLGQADKVLEEVDWLIKRLTILGSDTSEDSTQASNQTQALEKGVILQLGTLLTVFHELVQTALPAGSCVDSLLRSLSKTYAILTSLIKHYIQACRSTSNTVPGRLEKLVKLSGSHLTPQCYSFITYVQNIHSESLSFAEEKKKKKKEDETAVVSTVMAKVLRDTKPIPNLIFAIEQYEKFLIHLSKKSKVNLMQYMKLSTSRDFRINASMLDSVLQEQNTEDAENEPDNNQSGTAEQPDENQEPQKKRRRKK
  binding result: binds

Reference: publication doi:10.1101/2024.09.02.610668 (bioRxiv, 2024)
